Test results as given in the Human Domainome abundance scans (Beltran et al. 2025).
± gives the uncertainty stated by the source.

B1: Heterogeneous nuclear ribonucleoprotein U-like protein 2, residues 1 to 40; numbered along this chain, Q1KMD3 (parent)
chain: MEVKRLKVTELRSELQRRGLDSRGLKVDLAQRLQEALDAE

Variants of: B1
Experiment: abundance fitness (aPCA) (normalised: wild type 0, dead -1); higher = more abundant; growth selection in yeast, the domain comes from the species named
Settings: Homo sapiens
L6N gave an abundance fitness of -0.236 ± 0.14.
L6C gave an abundance fitness of -1.02 ± 0.13.
L6K showed an abundance fitness of -0.144 ± 0.089.
Work on L6R yielded an abundance fitness of -0.572 ± 0.052.
L6T gave an abundance fitness of 0.024 ± 0.18.
L6F gave an abundance fitness of -0.063 ± 0.15.
L6P gave an abundance fitness of -0.48 ± 0.074.
Work on L6Q yielded an abundance fitness of -0.198 ± 0.075.
For R18L, the abundance fitness was -0.228 ± 0.063.
With R18I the abundance fitness was -0.721 ± 0.32.
For R18S, the abundance fitness was -0.615 ± 0.067.
R18F showed an abundance fitness of -0.685 ± 0.13.
In the case of R18Q, the abundance fitness is reported as -0.614 ± 0.099.
R18T showed an abundance fitness of -0.627 ± 0.09.
In the case of R18E, the abundance fitness is reported as -0.571 ± 0.062.
Work on R18K yielded an abundance fitness of -0.356 ± 0.088.
R18W gave an abundance fitness of -1.08 ± 0.084.
With R18A the abundance fitness was -0.699 ± 0.066.
Variant R18Y has an abundance fitness of -0.652 ± 0.1.
Work on R18G yielded an abundance fitness of -0.481 ± 0.052.
R18M gave an abundance fitness of -0.215 ± 0.079.
R18P gave an abundance fitness of -0.436 ± 0.097.
Work on R18H yielded an abundance fitness of -0.726 ± 0.086.
For R18C, the abundance fitness was -0.668 ± 0.092.
In the case of R5D, the abundance fitness is reported as 0.181 ± 0.19.
Variant R5Y has an abundance fitness of -0.247 ± 0.16.
R5S gave an abundance fitness of 0.046 ± 0.055.
R5N showed an abundance fitness of -0.03 ± 0.19.
In the case of R5K, the abundance fitness is reported as 0.194 ± 0.08.
R5L gave an abundance fitness of -0.031 ± 0.059.
Work on R5V yielded an abundance fitness of -0.35 ± 0.059.
For R5P, the abundance fitness was -0.435 ± 0.074.
Variant R5G has an abundance fitness of -0.021 ± 0.048.
Work on R5W yielded an abundance fitness of -0.256 ± 0.056.
Work on R5C yielded an abundance fitness of -0.129 ± 0.064.
In the case of R5E, the abundance fitness is reported as 0.077 ± 0.061.
Work on R5I yielded an abundance fitness of -0.237 ± 0.096.
R5Q showed an abundance fitness of 0.006 ± 0.055.
For R5A, the abundance fitness was 0.005 ± 0.048.
With R5F the abundance fitness was -0.302 ± 0.15.
With R5M the abundance fitness was -0.038 ± 0.096.
E2W gave an abundance fitness of -0.263 ± 0.067.
Variant E2Q has an abundance fitness of -0.193 ± 0.091.
E2R gave an abundance fitness of -0.365 ± 0.07.
In the case of E2I, the abundance fitness is reported as -0.271 ± 0.12.
E2Y gave an abundance fitness of -0.161 ± 0.085.
Variant E2P has an abundance fitness of -0.844 ± 0.1.
In the case of E2A, the abundance fitness is reported as -0.33 ± 0.061.
For E2G, the abundance fitness was -0.371 ± 0.06.
Work on E2H yielded an abundance fitness of -0.201 ± 0.15.
E2T gave an abundance fitness of -0.243 ± 0.13.
With E2S the abundance fitness was -0.243 ± 0.082.
Variant E2V has an abundance fitness of -0.336 ± 0.094.
Variant E2K has an abundance fitness of -0.432 ± 0.079.
E2L gave an abundance fitness of -0.294 ± 0.068.
Variant E2C has an abundance fitness of -0.388 ± 0.088.
L11F showed an abundance fitness of -0.574 ± 0.16.
Work on L11H yielded an abundance fitness of -0.827 ± 0.22.
L11I showed an abundance fitness of -0.109 ± 0.09.
With L11C the abundance fitness was -0.988 ± 0.15.
For L11P, the abundance fitness was -0.584 ± 0.065.
With L11T the abundance fitness was -0.436 ± 0.082.
L11N showed an abundance fitness of -0.435 ± 0.091.
For L11G, the abundance fitness was -0.502 ± 0.046.
Work on L11A yielded an abundance fitness of -0.458 ± 0.052.
Work on L11Q yielded an abundance fitness of -0.448 ± 0.071.
In the case of L11E, the abundance fitness is reported as -0.336 ± 0.056.
Work on L11D yielded an abundance fitness of -0.436 ± 0.085.
Variant L11K has an abundance fitness of -0.495 ± 0.074.
For L11R, the abundance fitness was -0.641 ± 0.049.
L11V showed an abundance fitness of -0.375 ± 0.059.
With L11M the abundance fitness was -0.055 ± 0.062.
With L11W the abundance fitness was -1.08 ± 0.071.
In the case of L11S, the abundance fitness is reported as -0.438 ± 0.059.
In the case of R17L, the abundance fitness is reported as -0.129 ± 0.054.
R17I gave an abundance fitness of -0.173 ± 0.095.
Work on R17M yielded an abundance fitness of 0.006 ± 0.058.
Work on R17N yielded an abundance fitness of -0.77 ± 0.44.
R17Y showed an abundance fitness of -0.455 ± 0.099.
With R17G the abundance fitness was -0.252 ± 0.056.
Variant R17S has an abundance fitness of -0.092 ± 0.058.
With R17P the abundance fitness was -0.432 ± 0.085.
In the case of R17Q, the abundance fitness is reported as 0.008 ± 0.069.
Variant R17W has an abundance fitness of -0.521 ± 0.063.
R17K gave an abundance fitness of 0.112 ± 0.06.
R17E gave an abundance fitness of -0.121 ± 0.062.
For R17D, the abundance fitness was -0.218 ± 0.12.
For R17T, the abundance fitness was -0.184 ± 0.07.
Work on R17A yielded an abundance fitness of 0.053 ± 0.053.
Work on R17C yielded an abundance fitness of -0.282 ± 0.083.
In the case of R17V, the abundance fitness is reported as -0.219 ± 0.053.
Work on R17H yielded an abundance fitness of -0.276 ± 0.15.
V3L showed an abundance fitness of -0.122 ± 0.063.
With V3P the abundance fitness was -0.077 ± 0.063.
V3W gave an abundance fitness of -0.432 ± 0.053.
With V3D the abundance fitness was -0.202 ± 0.085.
Variant V3A has an abundance fitness of -0.107 ± 0.055.
For V3I, the abundance fitness was 0.048 ± 0.13.
With V3G the abundance fitness was -0.325 ± 0.048.
For V3C, the abundance fitness was -0.357 ± 0.1.
For V3T, the abundance fitness was -0.114 ± 0.073.
With V3R the abundance fitness was -0.567 ± 0.05.
With V3F the abundance fitness was -0.374 ± 0.17.
Variant V3H has an abundance fitness of -0.603 ± 0.19.
For V3E, the abundance fitness was -0.279 ± 0.07.
In the case of V3K, the abundance fitness is reported as -0.501 ± 0.1.
V3S gave an abundance fitness of -0.245 ± 0.062.
V3Y gave an abundance fitness of -0.226 ± 0.088.
V3Q showed an abundance fitness of -0.328 ± 0.082.
For K4H, the abundance fitness was 0.335 ± 0.46.
Variant K4Q has an abundance fitness of -0.028 ± 0.073.
In the case of K4C, the abundance fitness is reported as -0.181 ± 0.067.
In the case of K4I, the abundance fitness is reported as -0.317 ± 0.098.
K4T gave an abundance fitness of 0.019 ± 0.088.
K4L showed an abundance fitness of -0.123 ± 0.059.
K4D showed an abundance fitness of -0.082 ± 0.073.
Variant K4G has an abundance fitness of -0.126 ± 0.047.
With K4F the abundance fitness was -0.182 ± 0.17.
For K4M, the abundance fitness was 0.091 ± 0.11.
Work on K4A yielded an abundance fitness of -0.06 ± 0.049.
In the case of K4E, the abundance fitness is reported as 0.09 ± 0.062.
In the case of K4P, the abundance fitness is reported as -0.37 ± 0.074.
With K4W the abundance fitness was -0.097 ± 0.058.
K4R showed an abundance fitness of -0.152 ± 0.051.
With K4Y the abundance fitness was -0.112 ± 0.095.
In the case of T9H, the abundance fitness is reported as 0.163 ± 0.13.
For T9K, the abundance fitness was 0.099 ± 0.12.
With T9R the abundance fitness was -0.012 ± 0.049.
Variant T9V has an abundance fitness of -0.153 ± 0.056.
Variant T9M has an abundance fitness of 0.074 ± 0.12.
For T9W, the abundance fitness was -0.103 ± 0.06.
In the case of T9P, the abundance fitness is reported as -0.132 ± 0.066.
Variant T9Q has an abundance fitness of 0.022 ± 0.068.
In the case of T9S, the abundance fitness is reported as -0.083 ± 0.054.
T9L gave an abundance fitness of -0.27 ± 0.067.
T9G showed an abundance fitness of -0.017 ± 0.05.
Work on T9Y yielded an abundance fitness of -0.135 ± 0.14.
For T9A, the abundance fitness was -0.04 ± 0.053.
Work on T9E yielded an abundance fitness of 0.113 ± 0.053.
T9I gave an abundance fitness of 0.102 ± 0.15.
T9C gave an abundance fitness of -0.054 ± 0.099.
In the case of K7N, the abundance fitness is reported as 0.305 ± 0.11.
With K7C the abundance fitness was -0.158 ± 0.068.
Variant K7R has an abundance fitness of -0.153 ± 0.051.
For K7D, the abundance fitness was 0.135 ± 0.072.
With K7P the abundance fitness was -0.065 ± 0.06.
For K7A, the abundance fitness was -0.069 ± 0.05.
For K7S, the abundance fitness was 0.141 ± 0.056.
Variant K7I has an abundance fitness of -0.388 ± 0.15.
K7Q gave an abundance fitness of 0.067 ± 0.08.
Work on K7F yielded an abundance fitness of -0.484 ± 0.12.
Variant K7G has an abundance fitness of 0.015 ± 0.047.
K7V showed an abundance fitness of -0.274 ± 0.054.
Variant K7L has an abundance fitness of -0.143 ± 0.052.
Work on E10R yielded an abundance fitness of -0.619 ± 0.051.
With E10N the abundance fitness was -0.726 ± 0.25.
Variant E10Q has an abundance fitness of -0.023 ± 0.098.
E10P gave an abundance fitness of -0.758 ± 0.088.
Variant E10K has an abundance fitness of -1.08 ± 0.13.
In the case of E10S, the abundance fitness is reported as -0.512 ± 0.066.
With E10T the abundance fitness was -0.305 ± 0.079.
E10A gave an abundance fitness of -0.336 ± 0.056.
With E10M the abundance fitness was -0.329 ± 0.072.
Work on E10W yielded an abundance fitness of -0.599 ± 0.066.
With E10L the abundance fitness was -0.641 ± 0.057.
Work on E10V yielded an abundance fitness of -0.376 ± 0.059.
In the case of E10Y, the abundance fitness is reported as -0.869 ± 0.21.
